Laboratory results reported in the supplement of paper PMC6379048.
pEC50: −log10 of the molar value.

How the values were obtained:
Assay in all cases: EC50 of free RNA motif oligo competing protein binding to immobilised probe
CMTR1 = molecular target: T1, CMTR1 (UniProt Q8N1G2)
T1 sequence: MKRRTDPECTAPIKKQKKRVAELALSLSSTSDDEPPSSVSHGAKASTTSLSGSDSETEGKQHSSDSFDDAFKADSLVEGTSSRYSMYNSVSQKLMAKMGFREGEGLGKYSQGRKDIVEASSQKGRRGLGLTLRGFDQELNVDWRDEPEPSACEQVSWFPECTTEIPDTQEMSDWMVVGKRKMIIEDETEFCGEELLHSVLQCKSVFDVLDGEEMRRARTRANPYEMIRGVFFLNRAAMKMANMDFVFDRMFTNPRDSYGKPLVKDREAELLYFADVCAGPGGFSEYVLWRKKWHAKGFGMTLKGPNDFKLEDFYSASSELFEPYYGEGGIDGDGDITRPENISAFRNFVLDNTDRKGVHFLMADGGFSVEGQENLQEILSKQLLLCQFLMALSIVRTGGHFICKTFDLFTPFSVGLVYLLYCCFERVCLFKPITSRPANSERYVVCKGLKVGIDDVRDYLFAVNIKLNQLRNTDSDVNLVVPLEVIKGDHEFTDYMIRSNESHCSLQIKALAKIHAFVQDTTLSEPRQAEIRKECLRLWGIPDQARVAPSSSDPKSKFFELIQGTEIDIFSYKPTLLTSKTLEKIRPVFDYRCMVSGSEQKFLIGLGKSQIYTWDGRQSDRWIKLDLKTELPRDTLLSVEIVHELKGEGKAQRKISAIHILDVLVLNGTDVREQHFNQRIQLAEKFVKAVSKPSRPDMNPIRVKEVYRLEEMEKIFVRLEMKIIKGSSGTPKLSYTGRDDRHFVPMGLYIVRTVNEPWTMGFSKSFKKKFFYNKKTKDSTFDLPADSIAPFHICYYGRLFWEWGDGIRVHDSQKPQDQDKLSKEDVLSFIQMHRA
How it was run: (§1)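 Over three biological replicates and two independent experiments, proteins captured on NHS-Sepharose beads carrying 5′-amino-C6 RNA oligos were quantified by label-free LC-MS/MS and normalised to the control. Capture lasted 30 min at 4°C and followed a 1 h pre-incubation at 4°C of HEK293-FT lysate (2.5 mg protein/well) with the same oligos in free form (0 nM to 30 μM). EC50 was taken from a four-parameter log-logistic fit, and Kd was EC50 corrected by a protein-dependent depletion factor.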

CPSF2 = molecular target: T2, CPSF2 (UniProt Q9P2I0)
T2 sequence: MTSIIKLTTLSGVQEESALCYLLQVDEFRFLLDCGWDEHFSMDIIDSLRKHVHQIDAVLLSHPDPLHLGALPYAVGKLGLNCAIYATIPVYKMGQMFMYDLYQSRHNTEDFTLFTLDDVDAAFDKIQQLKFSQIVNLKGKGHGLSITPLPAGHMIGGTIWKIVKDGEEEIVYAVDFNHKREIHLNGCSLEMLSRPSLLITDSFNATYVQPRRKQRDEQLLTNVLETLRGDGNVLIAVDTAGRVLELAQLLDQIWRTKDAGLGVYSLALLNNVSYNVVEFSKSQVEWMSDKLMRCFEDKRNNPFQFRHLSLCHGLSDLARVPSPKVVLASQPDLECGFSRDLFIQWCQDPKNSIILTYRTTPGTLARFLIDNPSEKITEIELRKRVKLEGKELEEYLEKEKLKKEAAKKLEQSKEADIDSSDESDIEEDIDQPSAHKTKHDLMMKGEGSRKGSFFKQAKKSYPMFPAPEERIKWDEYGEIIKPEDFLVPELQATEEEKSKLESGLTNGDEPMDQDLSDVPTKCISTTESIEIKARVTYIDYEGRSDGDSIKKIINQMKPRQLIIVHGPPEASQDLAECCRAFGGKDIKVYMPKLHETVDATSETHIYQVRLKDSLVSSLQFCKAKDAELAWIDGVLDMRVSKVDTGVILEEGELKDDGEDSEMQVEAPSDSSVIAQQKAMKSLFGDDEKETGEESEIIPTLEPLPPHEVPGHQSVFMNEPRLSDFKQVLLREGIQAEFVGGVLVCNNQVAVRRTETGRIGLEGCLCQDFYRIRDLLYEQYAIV
How it was run: as §1

SLIRP = SLIRP (UniProt Q9GZT3)
How it was run: as §1

RBMS1 = molecular target: T3, RBMS1 (UniProt P29558)
T3 sequence: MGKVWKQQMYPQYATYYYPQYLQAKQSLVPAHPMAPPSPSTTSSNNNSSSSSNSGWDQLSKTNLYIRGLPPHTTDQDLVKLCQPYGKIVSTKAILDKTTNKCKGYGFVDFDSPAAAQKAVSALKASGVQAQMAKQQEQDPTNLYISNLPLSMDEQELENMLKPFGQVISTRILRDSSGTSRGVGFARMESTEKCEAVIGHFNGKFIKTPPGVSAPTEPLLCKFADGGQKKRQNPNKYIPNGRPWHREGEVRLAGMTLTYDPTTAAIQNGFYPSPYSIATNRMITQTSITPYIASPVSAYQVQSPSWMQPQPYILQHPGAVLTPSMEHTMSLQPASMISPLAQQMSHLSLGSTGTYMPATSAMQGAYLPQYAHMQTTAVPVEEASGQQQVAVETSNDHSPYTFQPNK
How it was run: as §1

LSM1 = molecular target: T4, LSM1 (UniProt O15116)
T4 sequence: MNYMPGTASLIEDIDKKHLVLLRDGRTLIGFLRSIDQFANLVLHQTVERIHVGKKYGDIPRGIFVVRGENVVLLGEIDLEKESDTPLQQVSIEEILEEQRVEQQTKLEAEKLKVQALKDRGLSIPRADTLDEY
How it was run: as §1

TSN = TSN (UniProt Q15631)
How it was run: as §1

Chain of TSN (Q15631 whole entry): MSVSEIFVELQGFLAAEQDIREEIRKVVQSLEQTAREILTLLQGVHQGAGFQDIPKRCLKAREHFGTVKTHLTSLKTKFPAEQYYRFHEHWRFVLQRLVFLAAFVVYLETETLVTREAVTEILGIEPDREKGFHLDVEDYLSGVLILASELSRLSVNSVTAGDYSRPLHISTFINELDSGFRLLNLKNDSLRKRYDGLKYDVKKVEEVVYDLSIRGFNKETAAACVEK

Sequence AAUAAA has a pEC50 (CMTR1) of 6.53, a pEC50 (CPSF2) of 7.17 and a pEC50 (SLIRP) of 5.80. For the same sequence, the pEC50 (RBMS1) was 5.81, the pEC50 (LSM1) was 6.73 and the pEC50 (TSN) was 7.23.

Sequence CUGUCCU has a pEC50 (SLIRP) of 5.82.

Sequence UAUUUAU has a pEC50 (CMTR1) of 5.92, a pEC50 (CPSF2) of 5.82 and a pEC50 (RBMS1) of 6.34. It also gave a pEC50 (LSM1) of 6.40 and a pEC50 (TSN) of 7.12.
